Positions of bridges follow the written chain, without caps; N, C: chain ends. No end group written: not given here.
B1: Des-[Asp1, Phe2, Asp3, Met4, Leu5]-MCH (MCH(6-19)) (peptide)
peptide: RCMLGRVYRPCWQV
modifications: disulfide 2-11
B2: melanin concentrating hormone (MCH), rat MCH (ligand)
peptide: DFDMLRCMLGRVYRPCWQV
modifications: disulfide 7-16
notes: also called synthetic MCH; synthetic rat MCH
B3: Des-[Asp1, Phe2, Asp3, Met4, Leu5, Arg6]-MCH (MCH(7-19)) (peptide)
peptide: CMLGRVYRPCWQV
modifications: disulfide 1-10

Key:
rat SLC-1 = rat SLC-1 (rat, UniProt P97639 1-353); experiment: cell-based or functional assay
human SLC-1 = target: T1, human SLC-1 (human); experiment: radioligand competition against [125I]-labeled MCH(4-19) on human SLC-1-expression CHO cell membrane fraction (2.5 µg/ml), filtration, γ-counter
T1 construct: also called hSLC-1; human SLC-1(S)

Binder	agonist activity, GTPγS binding assay (fold decrease against MCH) (rat SLC-1)	IC50 (human SLC-1)
B1	~10 times	
B2		0.2 nM
B3	~200 times	

— patent US6991908 (Takeda / Millennium, dated 2006)
